Laboratory results reported in US20150344580A1 (published 2015).

Experiments:
[1] = target: T1, human chemokine receptor CCR7 (UniProt P32248 25-378); assay: FACS cell binding; after pH stress (2hr)
T1 chain: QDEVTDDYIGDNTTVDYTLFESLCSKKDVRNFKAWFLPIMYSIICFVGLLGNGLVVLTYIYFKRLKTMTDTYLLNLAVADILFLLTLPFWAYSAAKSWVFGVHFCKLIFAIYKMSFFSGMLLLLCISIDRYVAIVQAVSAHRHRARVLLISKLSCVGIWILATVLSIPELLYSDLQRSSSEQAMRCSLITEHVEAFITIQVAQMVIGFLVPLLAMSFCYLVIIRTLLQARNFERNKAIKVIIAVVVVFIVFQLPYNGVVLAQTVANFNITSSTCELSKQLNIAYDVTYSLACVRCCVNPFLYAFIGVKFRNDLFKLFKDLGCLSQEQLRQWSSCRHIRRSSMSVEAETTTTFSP

[2] = target: T1, human chemokine receptor CCR7; assay: FACS cell binding; after pH stress (3hr)
[3] = target: T1, human chemokine receptor CCR7; assay: FACS cell binding; after pH stress (2hr)
[4] = target: T1, human chemokine receptor CCR7; assay: FACS cell binding; after pH stress (3hr)
[5] = target: T1, human chemokine receptor CCR7; assay: FACS cell binding; after temperature stress

B1: MSM R735 in IgG4 format (antibody, V domains shown)
VH: EVQLLESGGGLVQPGGSLRLSCAASGFTFSNYNMHWVRQAPGKGLEWVSGIGPRRGRTYYADSVKGRFTISRDNSKNTLYLQMNSLRAEDTAVYYCARSYAYQYRGLDYWGQGTLVTVSS
VL: EIVLTQSPGTLSLSPGERATLSCRASQSVSSSYLAWYQQKPGQAPRLLIYGASSRATGIPDRFSGSGSGTDFTLTISRLEPEDFAVYYCQQGSPVTFGQGTKVEIKR
B1 gave an EC50 [1] of ~4.6 nM and an EC50 [2] of ~7.6 nM.

B2: MSM R707 in IgG4 format (antibody, V domains shown)
VH: EVQLLESGGGLVQPGGSLRLSCAASGFTFSNYAIHWVRQAPGKGLEWVSAITPRGGYTYYADSVKGRFTISRDNSKNTLYLQMNSLRAEDTAVYYCARGLTMMYTPGMDYWGQGTLVTVSS
VL: not shown
Work on B2 yielded an EC50 [3] of ~9.4 nM, an EC50 [4] of ~9.1 nM and an EC50 [5] of ~6 nM.
